Source: patent US20140287419A1, “Compositions Having Dicamba Decarboxylase Activity and Methods of Use” (priority 2013, published 2014)
Residue numbers refer to the chain shown, from its start.

B1: SEQ ID NO:35: amidohydrolase, Burkholderia sp. CCGE1001 (protein)
chain: MAFKASRKIALEEHFAIDATVQDSAGFVPPSYWAELKRRLLDIHDRRIDEMDRNGVELMVLSLNAPTVQAVPNIKDAYDLSRRANDFLAEQIVKRPERFKGFAALPMQSPDLAARELERCVKELNFVGALVNGFSQVEESGTALYYDLPQYRQFWSVVQALDVPFYLHPRNPLPAHAPIYEGHPWLLGPTWAFGQETAVHALRLMGSGLFDEYPELKIILGHMGEGLPYSMWRIDNRNAWVETQPNYPAKKRIAEYFHKNFWLTTSGNFRTQTLIDAMLEIGSDRILFSTDWPFENVDHAAQWFDDAAISENDRIKIARTNAARLFKLEP
modifications: Burkholderia sp
B2: SEQ ID NO:46: decarboxylase, Rhodococcus opacus B4 (protein, listed as Rhodococcus opacus)
chain: MARIITLEEHYLDPAIAAASAPLARELSPDFAAAYDPASGLSYTPSAQVLQDLGQRRIADMDTHGISMQVLSCLTTQQVPADVAPDLVRAANDTAAAAVRAHPDRFAAFAALPTTAPDAAATELARCIDDLGFVGTMINGRTDGEFLDAPRFDPILATAAARNVPIYLHPAVPPRATSDSNYAGLAPLVTARLQTSAWGWHQETAVHFLHLVLSGVLDRYPNLQFILGHWGEMIPFYLDRLDEALPQAVTNLDRTISDYVRENVYITPSGMFNQAQLQYCVETLGVDRILYSVDYPFIGNDGAVSFLDEANLPDEAKHQIAHQNTEKLLGL
B3: SEQ ID NO:47: hypothetical protein SOD_m00560, Serratia odorifera 4Rx13 (protein, listed as Serratia odorifera)
chain: MAKIICLEEHTLDKALVMASMPAALAQAPFLSDWGKTITDGNLPDRSRPQIEKNDLINVKGADIGRGRLDDMDEAGITMQVLSVGGFPHLISAAEGVDLNRAANDRLANAVNAHPDRFAAFATLPWAQPDAAEKELERAVKELGFKGALLNGRPSIHFLDHPDYDGLLARFNALGVPLYLHPGLPVRSVQQAYYSGFSDEVTARLSMFGWGWHHEAGIHLLRLILSGAFDKYPNLQVISGHWGEMLPFWLQRLDDSLPQAATGLRRTITQTFREQVYVTPSGMLTLPHFQFIYALLGAERILFSVDYPYQTLDGVKAFIQSLPVPEEAKEAIAFRNAERLFGLTS
B4: SEQ ID NO:30: o-pyrocatechuate decarboxylase, Enterobacter aerogenes KCTC 2190 (protein)
chain: MARGKIALEEHVSTPENNRLWDSTGEANRNGSEYMQDVERRLLDRSIQLEEMAQRNIDHVILSLTSPGAQSILDKAKAVSFARDTNDFIVDNYVKPNPDKFSAFATLALQNPEAAAEELERAVKKLGMKGALINGYTNVKDSEHGLYLDDESMLVFWDKVNELNVPVYLHPREPLEGPARGIYTGYESLIGSAWGFAQETAVHAIRLMMSGLFDRYPNLNLVLGHLGEGLVHMLPRTQHRLYRQRFGCGLGKAEKPLMHYLQNNFIVTTSGHFNTHSLNNAIEVMGADRVMFSVDYPYEDIHQACDWFDPLEMDEGLKEKIAWGNASRVFNIK
modifications: Enterobacter aerogenes
B5: SEQ ID NO:44: amidohydrolase, Mycobacterium avium 104 (protein, listed as Mycobacterium avium)
chain: MARIITVEEHFQHPEVSARVAELTGPAVEGLAEFGNAFSLDPDSTARLGGNRLAHMDQVGIDVQVVSHGNGSPGTLQHPEAVELCRRVNNDLAAQIAENPDRFRGFATLPLYDPAAAAEELRRCVGDLGFVGALIAGSYDGLFLDDERFDPILTAAEAVDFPIYVHPGLPEAPVSQRYYAGSWPASVHMMFSGPAFGWHAEAGIHIVRLILSGALDRHPTLKLLSGHWGELAAFYLERLDETLGLLPTGLERAPSDYYRQQVWITPSGMYNQNQLNFMTAELGAQRIIYSEDFPYVVRDNVSTFLEQAGLSEADTHAIAHTNAEALLRI
B6: SEQ ID NO:31: reversible 2,6-dihydroxybenzoic acid decarboxylase, Agrobacterium sp. H13-3 (protein, listed as Agrobacterium sp.)
chain: MAQGKVALEEHFAIPETLQDSAGFVPGDYWKELQHRLLDIQDTRLKLMDAHGIETMILSLNAPAVQAIPDKTKAIEIARRANDVLAEECAKRPDRFLAFAALPLQDPDAATEELQRCVNDLGFVGALVNGFSQEGDGQTPLYYDLPQYRPFWGEVEKLDVPFYLHPRNPLPQDSRIYDGHPWLLGPTWAFAQETAVHALRLMASGLFDEHPRLNIILGHMGEGLPYMMWRIDHRNAWVKLPPRYPAKRRFMDYFNENFHITTSGNFRTQTLIDAILEIGADRILFSTDWPFENIDHASDWFNATSIAEADRVKIGRTNARRLFKLDGA
B7: SEQ ID NO:36: hypothetical protein AGRO_1970, Agrobacterium sp. ATCC 31749 (protein, listed as Agrobacterium sp.)
chain: B6 chain with K31T, V84A, D94N, E112Q, T139I, M251V, N302H, A328R
B8: SEQ ID NO:28: 5-carboxyvanillate decarboxylase, Sphingomonas paucimobilis (protein, listed as Sphingomonas paucimobilis)
chain: MARLIATEEAVTFQPVVDALRAHSRTDDASLDMILVRDVYGDEPARPAMIGRLSDVTGERLAEMDSNGVDMHLLSLTAPGVQMFDAETGTRLARIANDLMAQTVAANPTRFAGLGTFAPQDPASAAREIERVATQLRLNGLVINSHTNDLYYDDPFFHPVFEAIEASGLALYIHPRAPSKQIDRAFRDYGMNSAIWGYGIETSTNAVRMILSGLFDRFPRLKIVLGHMGEAIPFWLWRLDYMHGNATTFGGAPKLKLKPSEYFRRNFAITTSGVESHAALRYSIEVLGPENVMWAIDYPYQPMAPAVQFIRTAPIPEDVKAMVAGGNAARIFRIT
B9: SEQ ID NO:48: amidohydrolase, Amycolatopsis mediterranei U32 (protein, listed as Amycolatopsis mediterranei)
chain: MASMKLYGLEEHFVTADVIEAWRRRDPGLAEPMMKWAVASDITPALLDVDGGRIAAMDDAGIDTTVLSLTTPGLQNLDAAEAVALQAPTNDLIAAAVRRHPGRFQGFATLATSAPAAAADELRRAVTELGLNGALVNANSRGRALDAPGFWDIYEAAEDLRAPVYLHPGVPVPAVTEAYYRGFGEPVNSMLATGAFGWHYDAGLTILRMIVAGVFDRFPGLQVILGHWGEVVLFYLDRVAAMDKLTALRRPIAEYFRSNIFITPGGISSHKYLRWSLETVGVERIMYASDYPFNTERAGSARRFLDTAPVDEAGRERIAYRNWEELIAGIRR
B10: SEQ ID NO:49: amidohydrolase 2, Streptomyces sp. SPB78 (protein, listed as Streptomyces sp.)
chain: MAKIIALEEHFSDPAVAKAGAARARALSPGFAASYSPASGLPYSPSPEVLENLAEKRLADMDAGGITMQVLSGLGAQTVPADVAPALVAGSNDKAAAAVRAHPDRFAAFAALPTATPEAAVAELDRSVNELGFVGTLIMGRTEGEFLDAPRFEPILARAAALKVPVFLHPGVPPREITDSNYAAGLPTGIGTRLQTAAWGWHQETAVHFLHLVHSGVLDRYPDLQFILGHWGEMIPFYLDRVDEALPQRATGLDRSFHEYFRENVYLAPSGMWSQAQLRFCLETVPLERIVFAVDYPFIGNEGAVPFLEKAELPQADKRKIAHENAERLLGL
B11: SEQ ID NO:33: amidohydrolase, Rhizobium leguminosarum bv. viciae 3841 (protein, listed as Rhizobium leguminosarum)
chain: MAQGKIALEEHFAIPETLQDSAGFVPGDYWKELSARLLDIQEKRLRLMDAHGIEKMILSLNAPAVQAIPDRAKALEISRRANDFLAEQCVKNPNRFLGFAALPLQDPDAATQELQRCVTTMGFVGALVNGFSQEGDGTTPLYYDLPQYRSFWAEVEKLNVPFYLHPRNPLPQDSRIYAGHSWLMGPTWAFAQETAVHALRLMGSGLFDEHPALRIIVGHMGEGLPYMMWRIDNRNAWVKVEKSYPAKRPIADYFNENFYITTSGNFRTQSLIDAMLEIGADRILFSADWPFENIDHAANWFDSATISEADRLKIGRTNAVSLFKLDR
B12: SEQ ID NO:43: amidohydrolase, Rhizobium leguminosarum bv. trifolii WSM2304 (protein, listed as Rhizobium leguminosarum)
chain: B11 chain with K31T, E42D, A50T, R71K, L75V, S150P, N159D, I294V
B13: SEQ ID NO:34: amidohydrolase, Cupriavidus necator N-1 (protein)
chain: MAQGKIGLEEHFAIPETLNDSAGFVPGDYWKELSRRLLDIQDDRLRQMDENGMEMMLLSLNAPAVQAVPDRKQACELAVRANDFLAEQVSRRPDRFQALAALPLQDPDFATVELTRCVNELGMRGALVNGFSQIDTPDNVVYYDAPQYASFWAAVEKLDVPFYLHPRNPIASWAQIYDGHPWLLGPTWAFGQETAVHALRLMASGLFDRHPALQIVLGHLGEGLPYSLWRIDNRNAWVKAPKTHPAKKTFRHYFQQNFHLTTSGNFHNQTLIDAILEIGADRILFSTDWPFENIDHAAKWFDSASISEADRTKIGRTNAMKLFKLVA
modifications: Cupriavidus necator

Test: 14C assay with IPTG-induced recombinant E. coli cells (14CO2 capture from [14C]-carboxyl-labeled dicamba)
Conditions: E. coli cell assay, 108 sequences tested

Molecule | decarboxylation activity of dicamba
B1 | showed decarboxylation activity of dicamba
B2 | showed decarboxylation activity of dicamba
B3 | showed decarboxylation activity of dicamba
B4 | showed decarboxylation activity of dicamba
B5 | showed decarboxylation activity of dicamba
B6 | showed decarboxylation activity of dicamba
B7 | showed decarboxylation activity of dicamba
B8 | showed decarboxylation activity of dicamba
B9 | showed decarboxylation activity of dicamba
B10 | showed decarboxylation activity of dicamba
B11 | showed decarboxylation activity of dicamba
B12 | showed decarboxylation activity of dicamba
B13 | showed decarboxylation activity of dicamba
